Assay results taken from PMC5915679.

Legend:
[1] = target: hGW182 ABD (455–841) with motif-1 and motif-2 deleted (human) (UniProt Q8NDV7); assay: SEC
[2] = target: hGW182 ABD (455–841) with motif-1 and the hook deleted (human) (UniProt Q8NDV7); assay: SEC
[3] = target: hGW182 ABD (455–841) with motif-1 deleted (human) (UniProt Q8NDV7); assay: SEC
[4] = target: hGW182 ABD (455–841) with motif-2 and the hook deleted (human) (UniProt Q8NDV7); assay: SEC
[5] = target: hGW182 ABD (455–841) with the hook deleted (human) (UniProt Q8NDV7); assay: SEC
[6] = target: hGW182 ABD (455–841), tandem tryptophans of motif-1 and the hook mutated to alanine (human) (UniProt Q8NDV7); assay: pull-down
[7] = target: hGW182 ABD (455–841), tandem tryptophans of motif-2 and the hook mutated to alanine (human) (UniProt Q8NDV7); assay: pull-down

stoichiometry N [1]: 1
stoichiometry N [2]: 1
stoichiometry N [3]: 2
stoichiometry N [4]: 1
stoichiometry N [5]: 2
percent reduction of binding against the wild-type ABD [6]: < 10%
percent reduction of binding against the wild-type ABD [7]: < 10%
Substance: human Argonaute-2 (from UniProt Q9UKV8 1-859) (natural protein)
